Test results published in patent US20210063414A1 (Dana-Farber, published 2021).

How the values were obtained:
[1] = molecular target: T1, Integrin beta-5 (Itgb5) of MLO-Y4 cells (mouse, UniProt O70309 24-798); assay: DTSSP cross-linking on MLO-Y4 cells, his-tag pull-down, TMT mass spectrometry; ratio to his-tag adipsin control
T1 construct: whole, on cells; also called ITB5_MOUSE
T1 sequence (looked up): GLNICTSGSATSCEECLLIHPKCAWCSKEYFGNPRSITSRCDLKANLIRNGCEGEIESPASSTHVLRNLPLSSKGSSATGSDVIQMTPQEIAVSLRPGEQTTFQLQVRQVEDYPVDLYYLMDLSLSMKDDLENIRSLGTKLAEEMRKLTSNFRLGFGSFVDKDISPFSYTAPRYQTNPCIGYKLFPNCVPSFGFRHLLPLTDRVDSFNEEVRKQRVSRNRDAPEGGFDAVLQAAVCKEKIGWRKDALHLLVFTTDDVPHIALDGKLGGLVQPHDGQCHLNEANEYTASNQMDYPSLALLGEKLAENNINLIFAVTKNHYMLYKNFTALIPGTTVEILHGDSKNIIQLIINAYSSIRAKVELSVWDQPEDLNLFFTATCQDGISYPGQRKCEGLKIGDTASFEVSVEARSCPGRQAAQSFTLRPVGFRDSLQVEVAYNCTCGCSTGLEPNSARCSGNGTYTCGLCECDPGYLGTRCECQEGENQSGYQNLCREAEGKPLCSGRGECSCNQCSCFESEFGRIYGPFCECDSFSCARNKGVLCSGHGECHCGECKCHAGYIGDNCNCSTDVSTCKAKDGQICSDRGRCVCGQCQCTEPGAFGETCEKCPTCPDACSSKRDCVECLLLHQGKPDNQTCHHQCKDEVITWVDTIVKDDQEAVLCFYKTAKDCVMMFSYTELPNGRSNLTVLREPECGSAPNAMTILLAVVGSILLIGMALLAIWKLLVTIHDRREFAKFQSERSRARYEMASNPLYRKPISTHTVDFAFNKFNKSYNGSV

[2] = molecular target: T2, Integrin alpha-V (Itgav) of MLO-Y4 cells (mouse, UniProt P43406 31-1044); assay: as above
T2 construct: whole, on cells
T2 sequence (looked up): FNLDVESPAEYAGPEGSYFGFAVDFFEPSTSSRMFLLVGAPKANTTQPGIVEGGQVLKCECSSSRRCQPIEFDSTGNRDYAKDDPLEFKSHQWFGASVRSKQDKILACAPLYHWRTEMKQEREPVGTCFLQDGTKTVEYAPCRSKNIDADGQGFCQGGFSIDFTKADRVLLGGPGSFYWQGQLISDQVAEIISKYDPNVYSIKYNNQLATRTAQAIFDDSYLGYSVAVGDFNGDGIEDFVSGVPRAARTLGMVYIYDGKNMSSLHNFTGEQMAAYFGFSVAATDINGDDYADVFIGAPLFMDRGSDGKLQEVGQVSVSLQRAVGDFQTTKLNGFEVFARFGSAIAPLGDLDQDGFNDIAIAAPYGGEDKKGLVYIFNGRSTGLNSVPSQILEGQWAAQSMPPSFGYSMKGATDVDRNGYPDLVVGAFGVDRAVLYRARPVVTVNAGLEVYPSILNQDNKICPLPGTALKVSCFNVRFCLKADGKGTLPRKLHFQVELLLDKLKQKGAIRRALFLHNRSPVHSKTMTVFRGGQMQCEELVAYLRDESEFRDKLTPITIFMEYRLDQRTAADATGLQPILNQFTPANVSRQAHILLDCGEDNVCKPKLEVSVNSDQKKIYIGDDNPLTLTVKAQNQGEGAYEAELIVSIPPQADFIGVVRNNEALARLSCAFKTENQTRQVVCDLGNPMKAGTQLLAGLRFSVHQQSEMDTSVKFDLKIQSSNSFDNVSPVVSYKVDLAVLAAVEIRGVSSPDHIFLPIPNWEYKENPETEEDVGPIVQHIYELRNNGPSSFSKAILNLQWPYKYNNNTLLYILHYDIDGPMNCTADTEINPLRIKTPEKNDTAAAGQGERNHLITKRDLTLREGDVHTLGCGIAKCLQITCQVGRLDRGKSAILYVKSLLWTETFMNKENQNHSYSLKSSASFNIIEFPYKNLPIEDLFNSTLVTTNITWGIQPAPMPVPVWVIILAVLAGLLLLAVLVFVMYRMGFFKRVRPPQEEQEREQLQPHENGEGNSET

[3] = molecular target: T1, Integrin beta-5 (Itgb5) of MLO-Y4 cells; assay: DTSSP cross-linking on MLO-Y4 cells, his-tag pull-down, TMT mass spectrometry; irisin channel
[4] = molecular target: T3, Integrin beta-1 (Itgb1) of MLO-Y4 cells (mouse, UniProt P09055 21-798); assay: as above
T3 construct: whole, on cells; Endogenous protein of the mouse osteocyte-like cell line, cross-linked on intact cells; also called β1 integrin; integrin β1

[5] = molecular target: T2, Integrin alpha-V (Itgav) of MLO-Y4 cells; assay: as above
[6] = molecular target: T3, Integrin beta-1 (Itgb1) of MLO-Y4 cells; assay: DTSSP cross-linking of his-tag ligand on MLO-Y4 cells, his-tag pull-down, TMT quantitative mass spectrometry; ratio to his-tag adipsin control

T3 sequence (P09055 21-798): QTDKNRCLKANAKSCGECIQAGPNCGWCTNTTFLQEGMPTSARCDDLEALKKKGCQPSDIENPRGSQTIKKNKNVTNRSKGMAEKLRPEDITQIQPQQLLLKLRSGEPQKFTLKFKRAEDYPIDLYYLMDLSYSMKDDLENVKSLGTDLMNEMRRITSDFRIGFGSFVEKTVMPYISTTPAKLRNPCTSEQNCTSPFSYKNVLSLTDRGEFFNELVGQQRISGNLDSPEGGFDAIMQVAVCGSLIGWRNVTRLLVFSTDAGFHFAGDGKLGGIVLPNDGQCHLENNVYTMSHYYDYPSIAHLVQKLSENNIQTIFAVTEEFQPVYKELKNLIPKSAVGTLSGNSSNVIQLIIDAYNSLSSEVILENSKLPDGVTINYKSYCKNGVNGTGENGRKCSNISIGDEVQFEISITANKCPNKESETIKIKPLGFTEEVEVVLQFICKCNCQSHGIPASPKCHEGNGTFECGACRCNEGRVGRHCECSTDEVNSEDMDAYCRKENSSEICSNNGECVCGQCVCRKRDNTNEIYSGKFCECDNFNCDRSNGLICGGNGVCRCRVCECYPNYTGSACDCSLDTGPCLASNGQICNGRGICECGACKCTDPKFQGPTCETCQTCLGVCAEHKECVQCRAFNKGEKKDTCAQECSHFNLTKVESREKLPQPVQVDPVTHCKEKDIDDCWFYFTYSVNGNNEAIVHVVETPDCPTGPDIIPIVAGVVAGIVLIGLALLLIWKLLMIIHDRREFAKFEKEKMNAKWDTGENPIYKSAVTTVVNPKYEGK

B1: His-tag recombinant irisin (irisin (human/mouse) with a C-terminal 10 his tag, produced in HEK293 cells) (ligand)
chain: DSPSAPVNVTVRHLKANSAVVSWDVLEDEVVIGFAISQQKKDVRMLRFIQEVNTTTRSCALWDLEEDTEYIVHVQAISIQGQSPASEPVLFKTPREAEKMASKNKDEVTMKE
notes: Made in mammalian cells, glycosylated; Used in cell culture and cross-linking experiments; also called 10 His-tag irisin; his-tag irisin; not shown: C-terminal 10 his tag
Q: Which “irisin/adipsin (TMT ratio)” value [1] does the source give for B1 here?
A: The value was 1.45.

Q: What about the “irisin/adipsin (TMT ratio)” value [2] of the same binder?
A: The value was 1.11.

Q: What about the “summed signal-to-noise value for TMT channel” value (shortened to “summed signal-to-noise value”) [3] of the same binder?
A: The value was 215.

Q: And the “summed signal-to-noise value” value [4]?
A: The value was 858.

Q: And the “summed signal-to-noise value” value [5]?
A: The value was 60.6.

Q: What about the “irsin/adipsin (TMT ratio)” value [6] of the same binder?
A: Its value is 3.44.
